Legend:
mobilized stem cells = conditions: plerixafor 240 μg/kg; cited from earlier work
[1] = test system: CD34 mRNA expression in PBLs; experiment: Quantitative real-time PCR of CD34 mRNA in peripheral blood lymphocytes (PBLs) of donors; format: in vivo, human; conditions: PBLs from G-CSF treated donors (mobilized, n=18) vs non-treated donors (non-mobilized, n=10); normalized to β-actin; p=0.02; FIGS. 1A, 1C
Protocol: (§1) All −70° C. frozen human peripheral blood cell samples used for this study were either from the Core Center of Excellence in Hematology (CCEH) at the Fred Hutchison Cancer Research Center or from Massachusetts General Hospital (MGH). These peripheral blood samples were obtained from donors not treated (non-mobilized samples) or treated with recombinant G-CSF (mobilized samples). Additional samples include peripheral blood samples from G-CSF treated donors that were further enriched for CD34+ stem cells. The non-mobilized, mobilized, and CD34+ stem cell enriched samples were obtained following human consent protocol 985.03-2 from Fred Hutchison Cancer Research Center. Additional fresh peripheral blood lymphocytes (PBLs) that were used to standardize the mRNA expressions of the frozen PBLs samples were obtained following human consent protocol MGH-2001P001379 from MGH, which involved the obligatory informed consent of all subjects.
(§2) Peripheral blood lymphocytes (PBLs) isolated from peripheral blood samples through leukapheresis were thawed in 37° C. water bath and washed with PBS+1% FBS twice. […] Quantitative real-time PCR was performed using Power SYBR Green reagent (Applied Biosystems, Foster City, Calif.) and the 7000 Real-Time PCR System.
(§3) Relative mRNA expression was calculated using a comparative count method (ddCT method). […]

[2] = test system: Hox11 mRNA expression in PBLs; experiment: Quantitative real-time PCR of Hox11 mRNA in peripheral blood lymphocytes (PBLs) of donors; format: in vivo, human; conditions: PBLs from G-CSF treated donors (mobilized, n=18) vs non-treated donors (non-mobilized, n=10); normalized to β-actin; p=0.000013; FIGS. 1B, 1D
Protocol: as §1, §2, §3

Molecule	time at which the number of mobilized stem cells peaks after administration (mobilized stem cells) [h]	CD34 mRNA expression (relative quantity) [1]	Hox11 mRNA expression (relative quantity) [2]
c1cc(CN2CCCNCCNCCCNCC2)ccc1CN1CCCNCCNCCCNCC1 [plerixafor]	4 to 10	–	–
granulocyte colony-stimulating factor (protein, UniProt P09919 31-207, looked up, cytokine mobilization agent administered to donors to mobilize stem cells to peripheral blood) Granulocyte …: TPLGPASSLPQSFLLKCLEQVRKIQGDGAALQEKLVSECATYKLCHPEELVLLGHSLGIPWAPLSSCPSQALQLAGCLSQLHSGLFLYQGLLQALEGISPELGPTLDTLQLDVADFATTIWQQMEELGMAPALQPTQGAMPAFASAFQRRAGGVLVASHLQSFLEVSYRVLRHLAQP	–	exclusively found in PBLs isolated from mobilized peripheral blood samples	exclusively found in PBLs isolated from mobilized peripheral blood samples

— US20170106021A1, “COMPOSITIONS ENRICHED FOR HOX11+ STEM CELLS AND METHODS OF PREPARING THE SAME” (The General Hospital Corporation, priority 2014, published 2017)
